{
  "source": "paper PMC10167949",
  "binders": {"B1": {"name": "peptide substrate (Biotin-…-NH2) (peptide)", "peptide": "Biotin-GGGENWYNTLKRKK-NH2", "SMILES": "CC(C)C[C@H](NC(=O)[C@@H](NC(=O)[C@H](CC(N)=O)NC(=O)[C@H](Cc1ccc(O)cc1)NC(=O)[C@H](Cc1c[nH]c2ccccc12)NC(=O)[C@H](CC(N)=O)NC(=O)[C@H](CCC(=O)O)NC(=O)CNC(=O)CNC(=O)CNC(=O)CCCC[C@@H]1SC[C@@H]2NC(=O)N[C@@H]21)[C@@H](C)O)C(=O)N[C@@H](CCCCN)C(=O)N[C@@H](CCCNC(=N)N)C(=O)N[C@@H](CCCCN)C(=O)N[C@@H](CCCCN)C(N)=O"}},
  "key": {"[1]": {"biological_target": "T1, Unphosphorylated full-length MST2 (MST2-FL) (human) (UniProt Q13188)", "T1 sequence": "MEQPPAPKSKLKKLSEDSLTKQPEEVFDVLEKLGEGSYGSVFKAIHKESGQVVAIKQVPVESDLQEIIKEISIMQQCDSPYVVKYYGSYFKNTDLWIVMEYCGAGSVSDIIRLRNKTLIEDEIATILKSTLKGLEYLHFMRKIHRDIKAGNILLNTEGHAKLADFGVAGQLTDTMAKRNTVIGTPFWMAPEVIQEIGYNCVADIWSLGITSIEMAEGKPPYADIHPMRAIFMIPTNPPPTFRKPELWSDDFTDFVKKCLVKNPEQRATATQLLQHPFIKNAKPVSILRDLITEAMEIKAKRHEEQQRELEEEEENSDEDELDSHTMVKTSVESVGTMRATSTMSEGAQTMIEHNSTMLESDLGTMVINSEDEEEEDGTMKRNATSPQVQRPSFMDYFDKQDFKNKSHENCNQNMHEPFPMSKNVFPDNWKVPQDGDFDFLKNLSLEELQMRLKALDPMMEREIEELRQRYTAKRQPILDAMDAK"}, "[2]": {"biological_target": "Phosphorylated MST2 kinase domain (pMST2-K) (human) (UniProt Q13188)"}, "[3]": {"biological_target": "Phosphorylated full-length MST2 (pMST2-FL) (human) (UniProt Q13188)"}, "[4]": {"biological_target": "Phosphorylated MST2 kinase linker (pMST2-KL) (human) (UniProt Q13188)"}},
  "note": "The star is where a group is joined. Biotin = O=C1N[C@H]2[C@H](CS[C@H]2CCCCC(=O)*)N1",
  "data": [
    {"binder": "B1", "values": [
      {"measurement": "Km^app peptide, radiometric kinase assay (steady state, 30°C)", "setting": "[1]", "value": 139, "unit": "µM"},
      {"measurement": "Km^app peptide, radiometric kinase assay (steady state, 30°C)", "setting": "[2]", "value": 27, "unit": "µM"},
      {"measurement": "Km^app peptide, radiometric kinase assay (steady state, 30°C)", "setting": "[3]", "value": 32, "unit": "µM"},
      {"measurement": "Km^app peptide, radiometric kinase assay (steady state, 30°C)", "setting": "[4]", "value": 35, "unit": "µM"}
    ]}
  ]
}
